According to US20230235011A1:

Assays:
[1] = target: VEGF165 (UniProt P15692); test: SPR (Biacore T100, 25 C); binder captured on anti-human IgG CM5 chip, VEGF165 as analyte
[2] = target: recombinant human CD28 (human) (UniProt P10747); test: ELISA; CD28 coated at 100 ng/ml, fusion protein titrated, anti-human IgG Fc-HRP

control protein 301-8 (aflibercept) (Fc fusion), sequence (chain): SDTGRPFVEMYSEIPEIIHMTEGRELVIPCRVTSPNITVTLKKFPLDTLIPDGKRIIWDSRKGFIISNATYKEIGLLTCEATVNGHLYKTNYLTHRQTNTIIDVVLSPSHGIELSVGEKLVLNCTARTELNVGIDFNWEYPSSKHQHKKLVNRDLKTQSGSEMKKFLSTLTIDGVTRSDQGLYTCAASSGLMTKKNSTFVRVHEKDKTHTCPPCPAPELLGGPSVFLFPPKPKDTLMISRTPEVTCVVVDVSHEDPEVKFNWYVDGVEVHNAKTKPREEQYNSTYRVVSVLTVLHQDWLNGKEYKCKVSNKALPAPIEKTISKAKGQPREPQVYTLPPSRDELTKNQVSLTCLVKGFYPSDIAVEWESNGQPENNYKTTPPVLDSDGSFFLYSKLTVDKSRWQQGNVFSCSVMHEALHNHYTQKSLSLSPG
VEGF165, sequence (P15692 other isoform, or with tags, fused parts or gaps limits assumed): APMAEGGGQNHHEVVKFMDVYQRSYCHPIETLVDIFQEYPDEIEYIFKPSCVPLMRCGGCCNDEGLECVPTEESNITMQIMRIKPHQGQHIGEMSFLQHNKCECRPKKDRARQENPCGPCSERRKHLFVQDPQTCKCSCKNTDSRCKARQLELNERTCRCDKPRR
fusion protein BY24.23 (hCD80-Fc, IgG4) (Fc fusion), sequence (chain): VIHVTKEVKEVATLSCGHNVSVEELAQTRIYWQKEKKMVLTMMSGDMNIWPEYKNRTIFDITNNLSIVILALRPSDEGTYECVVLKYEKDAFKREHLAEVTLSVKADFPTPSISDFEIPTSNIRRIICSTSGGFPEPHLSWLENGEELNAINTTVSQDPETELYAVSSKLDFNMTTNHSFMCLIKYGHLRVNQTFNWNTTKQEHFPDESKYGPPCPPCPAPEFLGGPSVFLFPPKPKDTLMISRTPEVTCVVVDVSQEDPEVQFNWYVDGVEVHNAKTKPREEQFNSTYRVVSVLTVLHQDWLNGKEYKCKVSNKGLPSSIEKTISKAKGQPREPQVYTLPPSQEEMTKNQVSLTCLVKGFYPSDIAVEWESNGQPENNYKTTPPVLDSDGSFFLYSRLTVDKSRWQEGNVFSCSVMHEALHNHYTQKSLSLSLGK
fusion protein BY24.30 (Fc-hCD80, IgG4) (Fc fusion), sequence (chain): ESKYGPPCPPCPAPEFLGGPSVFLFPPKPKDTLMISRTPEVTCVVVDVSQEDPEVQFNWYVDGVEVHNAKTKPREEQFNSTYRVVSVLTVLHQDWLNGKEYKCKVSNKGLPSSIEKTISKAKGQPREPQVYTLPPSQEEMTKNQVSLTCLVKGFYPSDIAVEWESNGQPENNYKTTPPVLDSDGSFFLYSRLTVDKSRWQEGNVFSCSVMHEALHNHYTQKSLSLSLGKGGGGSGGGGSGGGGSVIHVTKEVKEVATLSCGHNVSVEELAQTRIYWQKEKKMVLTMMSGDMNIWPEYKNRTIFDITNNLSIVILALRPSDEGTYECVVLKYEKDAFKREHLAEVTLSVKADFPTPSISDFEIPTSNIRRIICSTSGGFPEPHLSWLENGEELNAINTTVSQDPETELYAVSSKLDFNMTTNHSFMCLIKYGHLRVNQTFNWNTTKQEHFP

## control protein 301-8 (aflibercept) (Fc fusion)
[1]
  Kd: 7.35 pM
  koff: 4.33e-05 s⁻¹
  kon: 5.89e+06 M⁻¹ s⁻¹

## fusion protein BY24.23 (hCD80-Fc, IgG4) (Fc fusion)
[2]
  EC50: 6.2 µg/mL

## fusion protein BY24.30 (Fc-hCD80, IgG4) (Fc fusion)
[2]
  EC50: 0.97 µg/mL
